In PMC4552884:

Biological target: PfHsp90 (Plasmodium falciparum (endogenous in strain 3D7)) (UniProt Q8IC05)

For precursor PfHsp60 (natural protein), the decrease in signal of the precursor PfHsp60 spot in the PfHsp60 immunoprecipitate of 35S-labelled parasites treated with 5 uM Geldanamycin against DMSO (2DGE, phosphorimaging) was 80%.
